This is an account of results in patent US20050059588A1, “Peptides which generate antibodies resulting in lysis of pathologically adherent erythrocytes” (REGENTS OF THE UNIVERSITY OF CALIFORNIA, priority 2003, published 2005).

Assay [1] has as its target thrombospondin (TSP), immobilized (UniProt P07996). The assay is described as follows: cytoadherence assay, IEs on immobilized TSP, mean and SD of triplicates.
In assay [2] the target is Partially purified CD36 (CD36 fraction) from human platelets, immobilized (human) (UniProt P16671). Nature of the assay: cytoadherence assay, IEs on immobilized CD36, mean and SD of triplicates.
Sequence of Partially purified CD36 (CD36 fraction) from human platelets, immobilized (human) (P16671 2-472 limits assumed, form in doubt): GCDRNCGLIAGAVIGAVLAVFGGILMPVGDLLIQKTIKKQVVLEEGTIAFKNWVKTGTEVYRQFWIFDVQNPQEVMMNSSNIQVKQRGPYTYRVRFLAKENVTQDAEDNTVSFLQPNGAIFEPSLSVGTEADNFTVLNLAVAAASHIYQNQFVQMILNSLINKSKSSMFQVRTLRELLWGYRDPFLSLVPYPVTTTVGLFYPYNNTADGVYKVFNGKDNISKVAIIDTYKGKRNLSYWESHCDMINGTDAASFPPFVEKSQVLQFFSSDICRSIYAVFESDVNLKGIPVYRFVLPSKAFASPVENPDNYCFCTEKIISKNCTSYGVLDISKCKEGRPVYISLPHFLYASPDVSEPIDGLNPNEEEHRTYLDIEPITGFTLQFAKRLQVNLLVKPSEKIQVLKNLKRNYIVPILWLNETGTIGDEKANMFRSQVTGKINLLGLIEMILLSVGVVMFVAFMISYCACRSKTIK

Sequence of thrombospondin (TSP), immobilized (P07996 19-1170 limits assumed): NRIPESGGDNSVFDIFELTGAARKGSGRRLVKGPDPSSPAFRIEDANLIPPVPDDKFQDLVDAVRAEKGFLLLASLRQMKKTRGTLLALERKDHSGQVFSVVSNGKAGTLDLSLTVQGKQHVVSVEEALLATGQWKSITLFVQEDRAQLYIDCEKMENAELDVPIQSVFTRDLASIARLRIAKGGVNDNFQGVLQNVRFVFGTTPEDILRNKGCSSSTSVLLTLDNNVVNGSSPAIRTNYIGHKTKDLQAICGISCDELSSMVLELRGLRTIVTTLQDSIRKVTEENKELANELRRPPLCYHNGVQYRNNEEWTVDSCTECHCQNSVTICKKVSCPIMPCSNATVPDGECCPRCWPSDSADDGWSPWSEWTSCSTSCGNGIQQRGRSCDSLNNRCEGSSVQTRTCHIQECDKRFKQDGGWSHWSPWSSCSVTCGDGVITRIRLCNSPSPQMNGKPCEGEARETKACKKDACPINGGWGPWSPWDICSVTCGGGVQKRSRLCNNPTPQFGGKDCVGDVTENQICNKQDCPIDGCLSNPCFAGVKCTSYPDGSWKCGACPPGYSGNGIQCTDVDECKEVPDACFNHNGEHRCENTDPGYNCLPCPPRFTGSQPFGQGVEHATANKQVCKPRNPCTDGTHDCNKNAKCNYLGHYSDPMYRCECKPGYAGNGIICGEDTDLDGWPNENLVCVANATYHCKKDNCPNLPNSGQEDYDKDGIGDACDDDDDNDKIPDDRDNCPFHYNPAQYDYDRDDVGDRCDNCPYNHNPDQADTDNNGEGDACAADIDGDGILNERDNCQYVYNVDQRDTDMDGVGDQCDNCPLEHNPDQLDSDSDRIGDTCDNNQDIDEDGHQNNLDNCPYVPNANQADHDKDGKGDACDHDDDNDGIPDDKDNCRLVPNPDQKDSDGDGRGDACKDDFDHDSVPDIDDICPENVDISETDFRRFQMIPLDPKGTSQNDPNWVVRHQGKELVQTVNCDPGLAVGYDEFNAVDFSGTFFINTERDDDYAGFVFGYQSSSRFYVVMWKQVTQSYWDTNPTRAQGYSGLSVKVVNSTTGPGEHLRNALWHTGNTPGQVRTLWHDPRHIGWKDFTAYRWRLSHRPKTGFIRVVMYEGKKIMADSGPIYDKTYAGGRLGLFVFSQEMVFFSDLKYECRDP

As to “Chymotrypsin cleaved AE1 on infected erythrocytes (from UniProt P02730 1-911)”, the figures for the percentage of bound IEs/mm^2 as compared to untreated cells in assay [1] and in assay [2] were 81% and 10.2%, respectively.
